One test concerns the target VWF96-MP (human, UniProt P04275 1573-1668, L1603N). Put plainly: ELISA.
The next test deals with VWF96-Spacer (human, UniProt P04275 1573-1668, L1664T | V1665N | L1666Q). Kind of test: ELISA. A general note: ELISA stands for enzyme-linked immunosorbent assay.
Another test addresses T1, ADAMTS13 (human, UniProt Q76LX8 75-1427).
T1 construct: ADAMTS13, recombinant; holds TSP2-4 (detected with an anti-ADAMTS13 TSP2-4 polyclonal antibody); The introduction says the short propeptide is removed before secretion; also called recombinant ADAMTS13
T1 sequence (looked up): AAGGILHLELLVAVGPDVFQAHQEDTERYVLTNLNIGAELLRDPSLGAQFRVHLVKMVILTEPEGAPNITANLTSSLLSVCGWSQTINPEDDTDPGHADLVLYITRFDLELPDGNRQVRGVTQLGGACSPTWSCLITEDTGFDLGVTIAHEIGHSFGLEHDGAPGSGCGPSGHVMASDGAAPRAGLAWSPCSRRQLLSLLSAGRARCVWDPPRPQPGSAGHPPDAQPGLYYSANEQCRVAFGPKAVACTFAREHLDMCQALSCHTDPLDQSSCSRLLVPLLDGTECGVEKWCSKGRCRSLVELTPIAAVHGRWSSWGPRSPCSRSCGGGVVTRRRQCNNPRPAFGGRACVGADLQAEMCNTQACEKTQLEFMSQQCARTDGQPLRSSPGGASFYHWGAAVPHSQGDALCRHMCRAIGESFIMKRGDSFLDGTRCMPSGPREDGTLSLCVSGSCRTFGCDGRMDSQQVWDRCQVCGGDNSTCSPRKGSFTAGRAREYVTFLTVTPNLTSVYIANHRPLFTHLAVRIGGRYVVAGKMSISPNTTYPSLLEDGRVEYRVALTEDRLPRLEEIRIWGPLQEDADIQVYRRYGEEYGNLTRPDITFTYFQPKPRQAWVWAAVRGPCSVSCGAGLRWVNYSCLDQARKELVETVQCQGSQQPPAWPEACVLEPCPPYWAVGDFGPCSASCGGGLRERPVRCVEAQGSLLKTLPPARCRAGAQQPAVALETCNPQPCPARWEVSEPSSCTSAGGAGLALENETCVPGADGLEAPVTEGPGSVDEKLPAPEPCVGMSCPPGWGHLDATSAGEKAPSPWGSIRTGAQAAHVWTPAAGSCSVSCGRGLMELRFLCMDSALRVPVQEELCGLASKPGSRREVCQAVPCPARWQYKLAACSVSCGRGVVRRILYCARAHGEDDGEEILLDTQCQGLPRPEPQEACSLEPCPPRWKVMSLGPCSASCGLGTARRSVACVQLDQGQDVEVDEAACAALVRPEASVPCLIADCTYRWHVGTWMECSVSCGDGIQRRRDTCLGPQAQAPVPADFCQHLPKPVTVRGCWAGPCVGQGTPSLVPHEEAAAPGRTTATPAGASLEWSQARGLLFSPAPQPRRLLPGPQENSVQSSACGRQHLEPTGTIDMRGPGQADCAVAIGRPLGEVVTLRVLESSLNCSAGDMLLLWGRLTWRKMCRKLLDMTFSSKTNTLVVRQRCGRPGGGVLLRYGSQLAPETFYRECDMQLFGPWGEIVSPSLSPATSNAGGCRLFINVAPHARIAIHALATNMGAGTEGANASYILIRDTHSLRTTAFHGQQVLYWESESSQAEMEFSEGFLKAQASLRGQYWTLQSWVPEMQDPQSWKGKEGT
Put plainly: ELISA; plate binding: 100 nM VWF96 or variant adsorbed on 96-well plates (50 mM sodium bicarbonate pH 9.6, overnight, 4 °C); 0-600 nM ADAMTS13 in PBS/1% BSA/80 mM EDTA, room temperature, 1.5 h (legend: 1 h); detected with biotinylated anti-ADAMTS13 TSP2-4 polyclonal antibody; one-site fit; apparent KD. To be noted: one partner purified.

In another test the target is T2, ADAMTS13 MDTCS(E225Q) (human, UniProt Q76LX8 78-682, E225Q, N-linked glycans at Asn142, Asn146, Asn552, Asn579, Asn614, Asn667 and an O-linked glycan on Ser399 (seen in the structure)).
T2 construct: Drosophila BiP signal cleaved off to give the native N terminus Gly78; Vector pMT-BiP-PURO; also called MDTCS(E225Q) active-site mutant; not shown: 6xHis, C-terminal, kept
T2 sequence (looked up): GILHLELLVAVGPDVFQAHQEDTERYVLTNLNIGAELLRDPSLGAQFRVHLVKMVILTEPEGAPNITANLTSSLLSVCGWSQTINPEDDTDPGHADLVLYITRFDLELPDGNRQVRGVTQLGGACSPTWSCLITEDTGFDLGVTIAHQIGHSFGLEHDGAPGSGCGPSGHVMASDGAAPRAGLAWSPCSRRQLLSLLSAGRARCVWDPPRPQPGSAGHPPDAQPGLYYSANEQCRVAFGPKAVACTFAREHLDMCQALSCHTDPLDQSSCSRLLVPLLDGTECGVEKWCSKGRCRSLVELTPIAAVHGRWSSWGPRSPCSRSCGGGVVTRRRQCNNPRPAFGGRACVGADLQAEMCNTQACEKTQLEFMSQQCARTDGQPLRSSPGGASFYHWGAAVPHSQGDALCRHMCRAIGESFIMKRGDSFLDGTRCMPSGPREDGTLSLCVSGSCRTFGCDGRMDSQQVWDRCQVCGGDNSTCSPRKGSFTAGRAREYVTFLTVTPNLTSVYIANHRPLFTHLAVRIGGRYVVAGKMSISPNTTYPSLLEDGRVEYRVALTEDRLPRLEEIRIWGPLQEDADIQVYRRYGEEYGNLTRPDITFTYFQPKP
Kind of test: ITC; 27 μM MDTCS(E225Q) in the cell, injections of 279 μM tag-free VWF73; 20 mM HEPES pH 7.5, 150 mM NaCl, 5 mM CaCl2; 25 °C; mean of four experiments. The following applies: both partners purified.

The text below walks through data of publication PMC6706451, “Crystal structure and substrate-induced activation of ADAMTS13” (Nature Communications, 2019).

Residue numbers refer to the chain shown, from its start.

B1: ADAMTS13 (enzyme)
chain: T1 sequence (looked up)
Regarding B1, the figures for the Kd with VWF96-MP and with VWF96-Spacer were 65 nM and 241 nM, respectively.

B2: VWF87(ΔSpacer) (domain or fragment)
chain: GNRTNTGLALRYLSDHSFLVSQGDREQAPNLVYMVTGNPASDEIKRLPGDIQVVPIGVGPNANVQELERIGWPNAPILIQDFETLPR
notes: von Willebrand factor, A2 domain fragment: VWF96 (Gly1573-Arg1668) with residues Glu1660-Arg1668 deleted, 87 amino acids; Variant of the VWF96 vector; the C-terminal HSV-6xHis tag follows residue 1659; source: E. coli BL21 (DE3), purified (Ni2+ HiTrap Chelating HP, Capto Q ImpRes); not shown: 6xHis-SUMO, N-terminal, kept; HSV-6xHis, C-terminal, kept
As to B2, in the test with ADAMTS13, the Kd was 475 nM.

B3: VWF96 (VWF A2 domain fragment Gly1573-Arg1668 with N-terminal 6xHis-SUMO tag and C-terminal HSV-6xHis tag) (domain or fragment)
chain: GNRTNTGLALRYLSDHSFLVSQGDREQAPNLVYMVTGNPASDEIKRLPGDIQVVPIGVGPNANVQELERIGWPNAPILIQDFETLPREAPDLVLQR
notes: von Willebrand factor, A2 domain fragment, residues Gly1573-Arg1668 (96 amino acids); SUMO tag is a derivative of yeast Smt3 (13 kDa, Invitrogen); Vector pET25b(+); About 32 kDa with tags; also called wild-type VWF96; source: E. coli BL21 (DE3), purified (Ni2+ HiTrap Chelating HP, Capto Q ImpRes); not shown: 6xHis-SUMO, N-terminal, kept; HSV-6xHis, C-terminal, kept
Regarding B3, the Kd with ADAMTS13 stood at 40 nM.

B4: VWF96-Cys (domain or fragment, human, UniProt P04275 1573-1668, looked up)
chain: B3 chain with I70Q, W72Y, A75S, I77Q, L78Q, I79Q
notes: Variant of the VWF96 vector; source: E. coli BL21 (DE3), purified (Ni2+ HiTrap Chelating HP, Capto Q ImpRes); not shown: 6xHis-SUMO, N-terminal, kept; HSV-6xHis, C-terminal, kept
On to B4, for which the Kd in the test with ADAMTS13 came out at 632 nM.

B5: VWF96-Dis (domain or fragment, human, UniProt P04275 1573-1668, looked up)
chain: B3 chain with D42A, I44Q, K45E, R46E, D50T
notes: as for B4
Turning to B5, the Kd in the test with ADAMTS13 worked out at 615 nM.

B6: VWF73 (tag-free VWF A2 domain fragment Asp1596-Arg1668) (domain or fragment)
chain: DREQAPNLVYMVTGNPASDEIKRLPGDIQVVPIGVGPNANVQELERIGWPNAPILIQDFETLPREAPDLVLQR
notes: von Willebrand factor, human, A2 domain fragment, residues Asp1596-Arg1668 (73 amino acids); Vector pET-SUMO; also called tag-free VWF73; source: E. coli One Shot BL21 Star (DE3), purified as VWF96; His-SUMO tag removed with SUMO protease-1, passed over Ni2+ column; not shown: 6xHis-SUMO, N-terminal, cleaved
Consider B6, for which the Kd with ADAMTS13 MDTCS(E225Q) stood at 450 nM.
